Assay [1] addresses H77c core-E1E2 HCVpp (HCV E1E2 with HVR1) (Hepatitis C virus genotype 1a, isolate H77C). As to the kind of experiment: binding affinity to HCVpp (method not given).
Assay [2] addresses H77c core-E1ΔHVR1E2 HCVpp (HCV E1E2 without HVR1) (Hepatitis C virus genotype 1a, isolate H77C) (UniProt P27958). Nature of the assay: binding affinity to HCVpp (method not given).

One may read the Kd as the free concentration of one partner at which half of the binding sites on the other are occupied at equilibrium, for simple one-to-one binding. Lower therefore signals higher affinity.

For CBH-4D (antibody), the figures for the Kd in assay [1] and in assay [2] were 840 pM and 480 pM, respectively.

For CBH-4G (antibody), the dissociation constant (Kd) came to 5430 pM in assay [1] and 5290 pM in assay [2].

Regarding CBH-5 (antibody), the Kd in assay [1] worked out at 4000 pM; in assay [2], 560 pM.

Turning to CBH-7 (antibody), the Kd turned out to be 240 pM in assay [1] and 80 pM in assay [2].

As for CBH-23 (antibody), the values for the Kd in assay [1] and in assay [2] were 170 pM and 90 pM, respectively.
